Assay results taken from doi:10.1101/2020.03.29.013490.

What was measured:
[1] = target: recombinant human angiotensin-converting enzyme-2 (ACE2) (human) (UniProt Q9BYF1); assay: BLI
[2] = target: 2019-nCoV spike 1 protein (S1) (2019-nCoV (SARS-CoV-2)); assay: BLI

Chain of recombinant human angiotensin-converting enzyme-2 (ACE2) (human) (Q9BYF1 18-740): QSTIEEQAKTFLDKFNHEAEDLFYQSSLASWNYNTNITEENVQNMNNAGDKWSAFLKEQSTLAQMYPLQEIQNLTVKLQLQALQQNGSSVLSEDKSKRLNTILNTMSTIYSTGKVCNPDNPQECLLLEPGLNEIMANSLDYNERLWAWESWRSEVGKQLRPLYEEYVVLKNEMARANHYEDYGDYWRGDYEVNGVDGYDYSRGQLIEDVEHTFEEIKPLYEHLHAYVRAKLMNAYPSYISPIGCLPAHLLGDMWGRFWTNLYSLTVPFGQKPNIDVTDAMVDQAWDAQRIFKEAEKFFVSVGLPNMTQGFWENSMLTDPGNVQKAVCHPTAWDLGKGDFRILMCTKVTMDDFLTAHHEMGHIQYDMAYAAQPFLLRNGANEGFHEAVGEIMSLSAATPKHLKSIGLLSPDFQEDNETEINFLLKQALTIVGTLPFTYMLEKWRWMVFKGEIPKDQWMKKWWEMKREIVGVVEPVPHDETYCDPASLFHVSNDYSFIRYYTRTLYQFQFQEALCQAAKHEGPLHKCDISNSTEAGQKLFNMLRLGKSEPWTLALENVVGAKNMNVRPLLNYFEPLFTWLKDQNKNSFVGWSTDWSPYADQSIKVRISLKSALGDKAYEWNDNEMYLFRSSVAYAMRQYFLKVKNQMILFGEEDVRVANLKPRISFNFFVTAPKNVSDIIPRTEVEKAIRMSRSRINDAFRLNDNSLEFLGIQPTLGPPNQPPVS
Chain of human defensin 5 (HD5) (Q01523 63-94): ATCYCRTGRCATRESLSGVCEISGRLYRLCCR

Substance	Kd [1] [nM]	Kd [2] [nM]
2019-nCoV spike 1 protein (S1) (domain or fragment)	2.68	–
human defensin 5 (HD5) (from UniProt Q01523 63-94) (peptide)	39.3	82.8
